Results: patent US20240262791A1 (University of California, published 2024)

Target: Spike protein on SARS-CoV-2 GFP Reporter Virus Particles (pseudotyped lentivirus), wild-type strain (SARS-CoV-2, UniProt P0DTC2 14-1273)
Assay: cell-based or functional assay

B1: Wildtype SR4 nanobody (VHH)
VHH: QVQLVESGGGLVQAGGSLRLSCAASGFPVYSWNMWWYRQAPGKEREWVAAIESHGDSTRYADSVKGRFTISRDNAKNTVYLQMNSLKPEDTAVYYCYVWVGHTYYGQGTQVTVSA
  IC50, inhibition of pseudovirus infection of 293T-ACE2 cells: 550 nM
